B1: SUN domain-containing protein 2 (Homo sapiens), Q9UH99 (parent)
chain: MSRRSQRLTRYSQGDDDGSSSSGGSSVAGSQSTLFKDSPLRTLKRKSSNMKRLSPAPQLGPSSDAHTSYYSESLVHESWFPPRSSLEELHGDANWGEDLRVRRRRGTGGSESSRASGLVGRKATEDFLGSSSGYSSEDDYVGYSDVDQQSSSSRLRSAVSRAGSLLWMVATSPGRLFRLLYWWAGTTWYRLTTAASLLDVFVLTRRFSSLKTFLWFLLPLLLLTCLTYGAWYFYPYGLQTFHPALVSWWAAKDSRRPDEGWEARDSSPHFQAEQRVMSRVHSLERRLEALAAEFSSNWQKEAMRLERLELRQGAPGQGGGGGLSHEDTLALLEGLVSRREAALKEDFRRETAARIQEELSALRAEHQQDSEDLFKKIVRASQESEARIQQLKSEWQSMTQESFQESSVKELRRLEDQLAGLQQELAALALKQSSVAEEVGLLPQQIQAVRDDVESQFPAWISQFLARGGGGRVGLLQREEMQAQLRELESKILTHVAEMQGKSAREAAASLSLTLQKEGVIGVTEEQVHHIVKQALQRYSEDRIGLADYALESGGASVISTRCSETYETKTALLSLFGIPLWYHSQSPRVILQPDVHPGNCWAFQGPQGFAVVRLSARIRPTAVTLEHVPKALSPNSTISSAPKDFAIFGFDEDLQQEGTLLGKFTYDQDGEPIQTFHFQAPTMATYQVVELRILTNWGHPEYTCIYRFRVHGEPAH

Variants of: B1
Details: with syne1_human SYNE1, Q8NF91

Variant | effect of a mutation on the interaction
I579E | disrupting interaction strength
C705A | increasing interaction strength

Source: IntAct's records for PubMed 33393904
